From publication PMC3711072

Target: CCR3 (UniProt P51677)
Sequence (P51677 whole entry): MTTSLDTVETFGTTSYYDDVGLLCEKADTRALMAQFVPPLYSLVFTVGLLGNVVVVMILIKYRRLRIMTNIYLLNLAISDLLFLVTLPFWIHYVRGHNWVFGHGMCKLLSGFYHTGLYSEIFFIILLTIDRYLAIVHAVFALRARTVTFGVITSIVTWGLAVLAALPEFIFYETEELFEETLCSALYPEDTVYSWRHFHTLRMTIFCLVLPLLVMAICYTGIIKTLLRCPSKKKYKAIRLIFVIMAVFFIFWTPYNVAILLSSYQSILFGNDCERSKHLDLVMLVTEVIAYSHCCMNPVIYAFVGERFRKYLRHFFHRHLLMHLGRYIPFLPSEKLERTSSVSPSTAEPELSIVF

Sequence of CCL5 (P13501 24-91): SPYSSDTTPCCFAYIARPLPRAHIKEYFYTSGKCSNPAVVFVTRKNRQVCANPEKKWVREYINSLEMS

reduction of CCR3 surface expression on human eosinophils (flow cytometry), 12.5 nM CCL5, 15 and 60 min: 56.1%
Substance: CCL5 (from UniProt P13501 24-91) (ligand)
